{"source": "paper PMC12221741", "about": "“WT EGFR and the oncogenic mutant EGFR (L858R) employ distinct mechanisms for export from the endoplasmic reticulum, a process critical for their activation” (The Journal of Biological Chemistry, 2025)", "binders": {"B1": {"name": "synthetic polyR peptide of EGFR (RRRHIVRKRTLRRC) (peptide)", "peptide": "RRRHIVRKRTLRRC(Sepharose 6B)", "notes": "EGFR, juxtamembrane region of the cytosolic domain, amino acid number 669-681; added C-terminal cysteine residue used for coupling to the beads; also called polyR peptides; source: synthetic peptide, bought: GenScript"}}, "target": "T1, His-tagged SAR1A^(Δ2–17, H79G) (human, UniProt Q9NR31 1-198, Δ2–17 | H79G)", "T1 construct": "SAR1A, human, GTPase-defective H79G, N-terminal helix (residues 2-17) deleted; also called SAR1A^(Δ2–17, H79G)-His; His-tagged SAR1A(H79G) deleted of its N-terminal helix; source: purified, as described previously", "T1 sequence (Q9NR31 other isoform, or with tags, fused parts or gaps Δ2–17 | H79G | Δ2–17 | H79G | H79G H79G)": "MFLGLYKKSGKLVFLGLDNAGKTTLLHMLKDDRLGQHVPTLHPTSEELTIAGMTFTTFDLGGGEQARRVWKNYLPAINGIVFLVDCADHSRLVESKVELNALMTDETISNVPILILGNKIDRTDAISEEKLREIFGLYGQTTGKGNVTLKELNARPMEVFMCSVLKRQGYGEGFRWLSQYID", "assay": "pull-down; peptide-binding assay: polyR peptide coupled through its C-terminal cysteine to thiopyridone-Sepharose 6B beads (5 nmol peptide); 2 μg purified His-tagged SAR1A preincubated with 500 μM GTPγS; HK buffer (100 mM KCl, 20 mM Hepes, pH 7.2), 1 h at 4 °C; immunoblot", "settings": "both partners purified", "note": "No end group written: not given here."}
{"binder": "B1", "values": [{"measurement": "binding result", "result": "binds"}]}
